T1: NFATC3 (Homo sapiens, UniProt Q12968)
T1 sequence: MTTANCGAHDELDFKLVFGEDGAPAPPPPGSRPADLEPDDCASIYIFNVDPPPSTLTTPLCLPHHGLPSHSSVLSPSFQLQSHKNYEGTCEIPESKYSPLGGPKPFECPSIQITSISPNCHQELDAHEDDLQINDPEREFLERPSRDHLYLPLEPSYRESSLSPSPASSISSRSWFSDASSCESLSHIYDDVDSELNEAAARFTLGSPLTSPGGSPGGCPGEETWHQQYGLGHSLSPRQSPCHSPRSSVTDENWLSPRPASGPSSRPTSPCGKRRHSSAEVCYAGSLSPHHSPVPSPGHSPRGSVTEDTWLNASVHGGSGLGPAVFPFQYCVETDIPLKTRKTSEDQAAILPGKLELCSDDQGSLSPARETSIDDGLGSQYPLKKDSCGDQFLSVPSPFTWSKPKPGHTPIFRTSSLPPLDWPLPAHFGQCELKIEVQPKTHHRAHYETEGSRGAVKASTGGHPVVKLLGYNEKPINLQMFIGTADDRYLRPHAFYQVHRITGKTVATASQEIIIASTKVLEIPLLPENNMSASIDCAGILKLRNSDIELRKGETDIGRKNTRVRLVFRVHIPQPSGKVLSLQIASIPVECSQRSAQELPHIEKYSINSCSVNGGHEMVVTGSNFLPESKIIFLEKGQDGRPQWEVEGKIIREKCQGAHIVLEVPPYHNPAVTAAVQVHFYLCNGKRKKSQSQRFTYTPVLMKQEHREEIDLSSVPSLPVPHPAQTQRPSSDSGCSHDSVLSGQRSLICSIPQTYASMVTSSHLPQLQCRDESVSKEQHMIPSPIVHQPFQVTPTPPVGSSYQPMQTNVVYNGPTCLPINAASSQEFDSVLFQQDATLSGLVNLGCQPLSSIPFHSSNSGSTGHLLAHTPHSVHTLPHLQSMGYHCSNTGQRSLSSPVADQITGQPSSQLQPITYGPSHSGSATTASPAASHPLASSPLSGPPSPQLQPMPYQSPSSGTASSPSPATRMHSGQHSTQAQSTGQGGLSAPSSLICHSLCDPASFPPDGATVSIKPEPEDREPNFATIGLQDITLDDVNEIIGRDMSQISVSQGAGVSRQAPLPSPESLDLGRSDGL

T2: ESRRA (Homo sapiens, UniProt P11474)
T2 sequence: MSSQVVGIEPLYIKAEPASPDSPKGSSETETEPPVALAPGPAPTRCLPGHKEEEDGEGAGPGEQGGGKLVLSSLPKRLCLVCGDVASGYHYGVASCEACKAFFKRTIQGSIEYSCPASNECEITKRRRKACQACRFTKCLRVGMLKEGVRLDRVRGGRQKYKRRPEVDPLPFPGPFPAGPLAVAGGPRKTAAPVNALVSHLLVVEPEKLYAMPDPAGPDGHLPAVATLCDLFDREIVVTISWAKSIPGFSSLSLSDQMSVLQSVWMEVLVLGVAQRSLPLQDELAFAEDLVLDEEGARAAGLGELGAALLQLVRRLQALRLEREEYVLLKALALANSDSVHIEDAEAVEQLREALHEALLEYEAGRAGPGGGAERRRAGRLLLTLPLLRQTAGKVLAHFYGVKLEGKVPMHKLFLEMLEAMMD

T3: CTCF (Homo sapiens, UniProt P49711)
T3 sequence: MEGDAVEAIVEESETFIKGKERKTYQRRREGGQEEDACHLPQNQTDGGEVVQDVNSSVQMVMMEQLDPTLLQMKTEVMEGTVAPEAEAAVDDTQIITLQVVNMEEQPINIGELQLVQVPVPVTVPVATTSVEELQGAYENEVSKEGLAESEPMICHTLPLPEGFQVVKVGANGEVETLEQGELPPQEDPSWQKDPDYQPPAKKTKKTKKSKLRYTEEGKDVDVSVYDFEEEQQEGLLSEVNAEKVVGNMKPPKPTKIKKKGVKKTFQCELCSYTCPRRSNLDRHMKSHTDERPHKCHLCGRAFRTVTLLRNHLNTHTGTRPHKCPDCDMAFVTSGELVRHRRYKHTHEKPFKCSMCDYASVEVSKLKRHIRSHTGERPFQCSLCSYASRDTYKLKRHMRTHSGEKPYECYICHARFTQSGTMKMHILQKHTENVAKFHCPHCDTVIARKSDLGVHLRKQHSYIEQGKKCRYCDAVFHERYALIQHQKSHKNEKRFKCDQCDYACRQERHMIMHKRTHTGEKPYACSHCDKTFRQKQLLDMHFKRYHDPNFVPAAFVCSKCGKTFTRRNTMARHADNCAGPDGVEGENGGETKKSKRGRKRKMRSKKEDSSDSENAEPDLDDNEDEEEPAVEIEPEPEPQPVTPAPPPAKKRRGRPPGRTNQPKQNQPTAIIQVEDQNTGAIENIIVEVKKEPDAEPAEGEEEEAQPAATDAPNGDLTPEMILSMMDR

B1: TEAD (dsDNA)
DNA 1: TCGGGACCCAGGCCTGGAATGTTTCCACC
DNA 2: GGTGGAAACATTCCAGGCCTGGGTCCCGA
B2: CTCF (dsDNA)
DNA 1: TCAGAGTGGCGGCCAGCAGGGGGCGCCCTTGCCAGA
DNA 2: TCTGGCAAGGGCGCCCCCTGCTGGCCGCCACTCTGA

Assays:
Assay in all cases: pulldown; 150 mM NaCl, 50 mM Tris pH 8, 0.25% NP-40, 1 mM TCEP; 4 C, 2 h; 100 ug HeLa nuclear lysate
NFATC3 = biological target: T1, NFATC3; details: protein: extract; label: 5' biotin (strand 1)
ZNF24 = ZNF24 (Homo sapiens, UniProt P17028); details: protein: extract; label: 5' biotin (strand 1)
ZNF24, sequence (P17028 whole entry): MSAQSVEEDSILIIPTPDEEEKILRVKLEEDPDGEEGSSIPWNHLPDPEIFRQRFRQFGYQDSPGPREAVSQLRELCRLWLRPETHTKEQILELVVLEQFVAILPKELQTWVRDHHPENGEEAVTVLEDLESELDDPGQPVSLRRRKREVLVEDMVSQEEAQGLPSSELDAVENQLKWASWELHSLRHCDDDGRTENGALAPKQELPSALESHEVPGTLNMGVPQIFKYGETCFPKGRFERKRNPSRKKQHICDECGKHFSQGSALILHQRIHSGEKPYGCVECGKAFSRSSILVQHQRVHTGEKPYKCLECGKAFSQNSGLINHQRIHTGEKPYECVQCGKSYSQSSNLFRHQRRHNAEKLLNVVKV

ESRRA = biological target: T2, ESRRA; details: protein: extract; label: 5' biotin (strand 1)
HIVEP1 = HIVEP1 (Homo sapiens, UniProt P15822)
YY1 = YY1 (Homo sapiens, UniProt P25490); details: protein: extract; label: 5' biotin (strand 1)
YY1, sequence (P25490 whole entry): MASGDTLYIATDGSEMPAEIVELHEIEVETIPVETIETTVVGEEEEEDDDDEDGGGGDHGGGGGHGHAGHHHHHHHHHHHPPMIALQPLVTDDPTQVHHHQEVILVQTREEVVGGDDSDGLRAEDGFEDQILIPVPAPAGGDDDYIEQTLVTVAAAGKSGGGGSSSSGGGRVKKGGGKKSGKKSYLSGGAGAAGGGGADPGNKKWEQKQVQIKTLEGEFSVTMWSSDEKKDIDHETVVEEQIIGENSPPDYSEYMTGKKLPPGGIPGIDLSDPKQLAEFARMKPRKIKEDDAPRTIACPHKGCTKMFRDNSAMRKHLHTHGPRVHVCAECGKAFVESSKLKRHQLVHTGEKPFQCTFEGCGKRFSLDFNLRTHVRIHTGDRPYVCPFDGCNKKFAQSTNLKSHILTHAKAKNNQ

CTCF = biological target: T3, CTCF; details: protein: extract; label: 5' biotin (strand 1)

Binder | apparent K (half saturation) (NFATC3) | apparent K (half saturation) (ZNF24) | apparent K (half saturation) (ESRRA) | apparent K (half saturation) (HIVEP1) | apparent K (half saturation) (YY1) | apparent K (half saturation) (CTCF)
B1 | 46.7 nM | – | – | – | – | –
B2 | – | 388 nM | 319 nM | 76.6 nM | 400 nM | 16.1 nM

From PMC5916898, “Global profiling of protein–DNA and protein–nucleosome binding affinities using quantitative mass spectrometry”
